Patent US20200330514A1 (TORQUE THERAPEUTICS, published 2020)

T1: human CD45 receptor on the surface of human T cells (human, UniProt P08575 26-1306)
T1 construct: whole, on cells; also called cellular CD45; leukocyte common antigen
T1 sequence (looked up): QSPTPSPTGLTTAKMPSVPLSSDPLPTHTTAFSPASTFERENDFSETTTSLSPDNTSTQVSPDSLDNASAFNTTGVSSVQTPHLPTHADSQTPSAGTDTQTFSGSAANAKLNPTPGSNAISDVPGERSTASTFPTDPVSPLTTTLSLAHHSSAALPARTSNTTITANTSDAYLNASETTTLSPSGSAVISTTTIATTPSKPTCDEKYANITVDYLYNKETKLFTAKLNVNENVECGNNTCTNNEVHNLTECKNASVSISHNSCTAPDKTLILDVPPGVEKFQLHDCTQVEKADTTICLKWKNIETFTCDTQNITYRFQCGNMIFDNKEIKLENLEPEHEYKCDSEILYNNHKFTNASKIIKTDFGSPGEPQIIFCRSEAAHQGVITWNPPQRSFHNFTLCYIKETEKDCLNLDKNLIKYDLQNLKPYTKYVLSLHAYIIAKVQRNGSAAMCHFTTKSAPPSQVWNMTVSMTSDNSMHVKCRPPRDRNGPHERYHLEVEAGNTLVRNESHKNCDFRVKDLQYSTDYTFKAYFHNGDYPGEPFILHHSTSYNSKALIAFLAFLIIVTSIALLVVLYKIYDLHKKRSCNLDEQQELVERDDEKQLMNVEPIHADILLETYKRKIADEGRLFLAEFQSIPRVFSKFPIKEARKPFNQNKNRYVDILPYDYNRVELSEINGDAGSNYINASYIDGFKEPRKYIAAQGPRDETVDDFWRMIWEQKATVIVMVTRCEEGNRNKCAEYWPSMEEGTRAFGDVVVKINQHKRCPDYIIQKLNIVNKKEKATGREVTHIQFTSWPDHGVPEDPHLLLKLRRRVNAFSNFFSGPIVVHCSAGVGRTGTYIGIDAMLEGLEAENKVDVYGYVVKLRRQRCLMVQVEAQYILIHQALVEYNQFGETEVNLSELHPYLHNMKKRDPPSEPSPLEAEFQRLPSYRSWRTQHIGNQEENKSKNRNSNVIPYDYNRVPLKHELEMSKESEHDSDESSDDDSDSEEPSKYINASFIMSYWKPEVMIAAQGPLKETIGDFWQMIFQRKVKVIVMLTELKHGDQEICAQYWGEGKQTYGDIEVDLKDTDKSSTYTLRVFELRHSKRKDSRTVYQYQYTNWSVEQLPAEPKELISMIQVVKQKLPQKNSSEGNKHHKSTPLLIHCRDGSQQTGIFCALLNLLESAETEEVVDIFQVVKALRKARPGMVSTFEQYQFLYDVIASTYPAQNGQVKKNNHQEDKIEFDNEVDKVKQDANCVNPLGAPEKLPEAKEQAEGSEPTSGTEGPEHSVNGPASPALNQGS

B1: human CD8 on the surface of human CD8 T cells (receptor)
chain 1: not shown
chain 2: LQQTPAYIKVQTNKMVMLSCEAKISLSNMRIYWLRQRQAPSSDSHHEFLALWDSAKGTIHGEEVEQEKIAVFRDASRFILNLTSVKPEDSGIYFCMIVGSPELTFGKGTQLSVVDFLPTTAQPTKKSTLKKRVCRLPRPETQKGPLCSPITLGLLVAGVLVLLVSLGVAIHLCCRRRRARLRFMKQFYK
notes: whole, on cells

Assays:
[1] = biological target: B1; assay: flow cytometry titration on total CD3 human T cells (FIG. 17D)
chOKT8-IL15/sushi Fab = biological target: T2, chOKT8-IL15/sushi Fab (human, UniProt Q13261 31-95); assay: as above
T2 construct: Anti-human CD8 Fab IFM; also called chOKT8Fab-IL15/sushi; chOKT8Fab-Il15/sushi
T2 sequence (Q13261 31-95): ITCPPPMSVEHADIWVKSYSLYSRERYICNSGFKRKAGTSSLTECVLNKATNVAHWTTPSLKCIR

[2] = biological target: T1, human CD45 receptor on the surface of …; assay: apparent KD (KD,app); flow cytometry titration of IgG on activated primary human CD8 T cells, 4-parameter fit
Excerpt: For comparison with previous results we evaluated these antibodies alongside chBC8, hBC8(23), and a non-binding variant hBC8-null. The humanized BC8 antibody consists of variable domains containing CDR regions grafted from BC8, and the hBC8-null variant contains an SGGGS substitution in the heavy-chain CDR3, which ablates binding to CD45 (FIG. 10A). […] We use the term apparent dissociation constant (K_{D,app}) to distinguish from a true equilibrium dissociation constant: the bivalent nature of the IgG antibody introduces an avidity effect that complicates the calculation of a true equilibrium dissociation constant for these type of assays. Nevertheless, the K_{D,app} is a useful metric for scoring relative affinities of the antibodies to the cellular receptor in its native context.
Cell binding assay. Primary human CD8 T-cells were activated with CD3/CD28 beads and 10 ng/mL IL-2 as described in Example 1. Following activation and an overnight rest in full RPMI media (see Example 1 methods) the T-cells were incubated with seven serial five-fold dilutions of antibodies spanning 500 nM to 6.4 μM, or with media only control at 4° C. for 1 hr. Cells were washed with MACS buffer (PBS, 2% FBS, 1 mM EDTA) three times, and antibody binding was detected using a PE-conjugated anti-human IgG-Fc antibody (BioLegend, cat. no. HP6017) for 20 min. at 4° C. Cells were washed two times with MACS buffer, and the resuspended in MACS buffer with live-dead stain (7-AAD). Antibody binding was quantified using the median fluorescence intensity (MFI) of the live cell population (via 7-AAD exclusion) within the PE signal. Curves were generated by plotting mean fluorescent units against antibody concentration, and apparent dissociation constants (K_{D,app}) were determined by non-linear regression using a four-parameter logistic equation using GraphPad Prism (GraphPad Software, Inc.).

[3] = biological target: T1, human CD45 receptor on the surface of …; assay: pulse incubation of human CD3 T cells, anti-human IgG staining by flow cytometry (FIG. 23)
Experimental: We evaluated the ability of IL12-TFs to support the loading of IL-12 onto T cells. Briefly, human total CD3 T cells were activated with CD3/CD28 Dynabeads for three days. Beads were removed and cells were incubated with IL-2 for 1 day prior to pulse incubation with h9.4Fab-scIL-12p70 diluted in full medium (RPMI 1640 with 10% FBS). Cells were incubated in biological duplicate with full media (Mock condition) or h9.4Fab-scIL-12p70 for 1 hr at 37° C. and then washed three times will full media (RPMI 1640 with 10% FBS) to remove unbound IL12-TF. Cells were then plated in full medium at a cell density of approximately 200,000 cells/mL and incubated at 37° C., 5% CO2. Surface tethered IL-12 was detected using flow cytometry by immunostaining with a polyclonal anti-human IgG antibody. Cells were counted using CountBright Absolute flow cytometry counting beads. In each case cells were analyzed on a FACSCelesta using Diva Software; data was analyzed using Cytobank.

| Kd [2] [nM] | Binder | also measured |
| --- | --- | --- |
| – | chOKT8Fab (anti-human CD8 clone OKT8 as Fab fragment) (Fab, V domains shown) VH: QVQLQQSGAELVKPGASVKLSCTASGFNIKDTYIHFVRQRPEQGLEWIGRIDPANDNTLYASKFQGKATITADTSSNTAYMHLSSLTSGDTAVYYCGRGYGYYVFDHWGQGTTLTVSS VL: DVQINQSPSFLAASPGETITINCRTSRSISQYLAWYQEKPGKTNKLLIYSGSTLQSGIPSRFSGSGSGTDFTLTISGLEPEDFAMYYCQQHNENPLTFGAGTKLELKR | binding result [1]: binds |
| – | B1 | binding result (chOKT8-IL15/sushi Fab): binds |
| 0.44 | ch4B2 chimeric IgG anti-CD45 antibody (antibody, V domains shown, Chimeric IgG: mouse variable domains, human constant kappa domain and human IgG4 with S228P) VH: QVQLQQSGAELARPGASVKMSCKASGYTFTSYTMQWVKQRPGQGLEWIGYINPSSGYIKYNQKFKDKVTLTADKSSTTAYMQLSRLTSEDSAVYYCARRGSYFFDFWGQGTSVTVSS VL: DIVITQDELSNPVTSGESVSISCRSSKSLLYKDGKTYLNWFLQRPGQSPQLLIYLMSTRASGVSDRFSGSGSGTDFTLEISRVKAEDVGVYYCQQLVEYPFTFGGGTKLEVK | – |
| 7.8 | hBC8(23) humanized BC8 anti-CD45 antibody (IgG form) (antibody, V domains shown, Tested as an antibody detected with anti-human IgG-Fc; its constant regions are not spelled out for the humanized antibody) VH: EVQLVESGGGLVQPGGSLRLSCAASGFDFSRYWMSWVRQAPGKGLEWIGEINPTSSTINFADSVKGRFTISRDNAKNSLYLQMNSVRDEDTAVYYCARGNYYRYGDAMDYWGQGTLVTVSS VL: EIVLTQSPATLSLSLGERATISCRASKSVSTSGYSYLHWYQQKPGQAPKLLIYLASNRATGVPARFSGSGPGTDFTLTISSLEPEDFATYYCQHSRELPFTFGQGTKLEIK | – |
| 6.68 | chBC8 chimeric IgG anti-CD45 antibody (IgG4-S228P) (antibody, V domains shown, also called chBC8 IgG; chimeric BC8) VH: QVQLVESGGGLVQPGGSLKLSCAASGFDFSRYWMSWVRQAPGKGLEWIGEINPTSSTINFTPSLKDKVFISRDNAKNTLYLQMSKVRSEDTALYYCARGNYYRYGDAMDYWGQGTSVTVSS VL: DIVLTQSPASLAVSLGQRATISCRASKSVSTSGYSYLHWYQQKPGQPPKLLIYLASNLESGVPARFSGSGSGTDFTLNIHPVEEEDAATYYCQHSRELPFTFGSGTKLEIKR | – |
| – | h9.4Fab-scIL-12p70 (other, Anti-human CD45 Fab fused to single-chain human IL-12p70; also called anti-CD45-IL12-TF; IL12-TF) heavy: EVQLVQSGAEVKKPGASVKVSCKASGYTFTSYSIQWVRQAPGQRLEWIGYINPSSGYIKYNQHFRGRATLTADRSASTAYMELSSLRSEDTAVYYCARGNSGSFDYWGQGTLVTVSSASTKGPSVFPLAPSSKSTSGGTAALGCLVKDYFPEPVTVSWNSGALTSGVHTFPAVLQSSGLYSLSSVVTVPSSSLGTQTYICNVNHKPSNTKVDKKVEPKSC light: DIVMTQSPLSLPVTPGEPASISCRSSQSLLHSSGITYLYWFLQKPGQSPQLLIYRMSNLASGVPDRFSGSGSGTDFTLKISRVEAEDVGVYYCMQHLEYPFTFGQGTKLEIKRTVAAPSVFIFPPSDEQLKSGTASVVCLLNNFYPREAKVQWKVDNALQSGNSQESVTEQDSKDSTYSLSSTLTLSKADYEKHKVYACEVTHQGLSSPVTKSFNRGECGGGGSGGGGSGGGGSIWELKKDVYVVELDWYPDAPGEMVVLTCDTPEEDGITWTLDQSSEVLGSGKTLTIQVKEFGDAGQYTCHKGGEVLSHSLLLLHKKEDGIWSTDILKDQKEPKNKTFLRCEAKNYSGRFTCWWLTTISTDLTFSVKSSRGSSDPQGVTCGAATLSAERVRGDNKEYEYSVECQEDSACPAAEESLPIEVMVDAVHKLKYENYTSSFFIRDIIKPDPPKNLQLKPLKNSRQVEVSWEYPDTWSTPHSYFSLTFCVQVQGKSKREKKDRVFTDKTSATVICRKNASISVRAQDRYYSSSWSEWASVPCSGGGSGGGSGGGSGGGSRNLPVATPDPGMFPCLHHSQNLLRAVSNMLQKARQTLEFYPCTSEEIDHEDITKDKTSTVEACLPLELTKNESCLNSRETSFITNGSCLASRKTSFMMALCLSSIYEDLKMYQVEFKTMNAKLLMDPKRQIFLDQNMLAVIDELMQALNFNSETVPQKSSLEEPDFYKTKIKLCILLHAFRIRAVTIDRVMSYLNAS | binding result [3]: binds |
| 0.84 | ch9.4 chimeric IgG anti-CD45 antibody (antibody, V domains shown, Chimeric IgG: mouse variable domains, human constant kappa domain and human IgG4 with S228P) VH: QVQLQQLGAELARPGASVKMSCKASGYTFTSYSIQWVKQRPGQGLEWIGYINPSSGYIKYNQHFRDRATLTADRSSSTAYMQLSSLTSEDSAVYYCARGNSGSFDYWGQGTTLTVSS VL: DIVMTQAAPSVPVTPGESLSISCRSSKSLLHSSGITYLYWFLQRPGQSPQLLIYRMSNLASGVPDRFSGSGSGTAFTLRISRVEAEDVGVYYCMQHLEYPFTFGGGTKLEIK | – |
